“Also recorded” adds a separate entry of the source. AF647 = AlexaFluor 647
Tests used:
CoilY-EGFP-TM = assay: Flow cytometry of probe labeling, live U-2 OS cells expressing CoilY-EGFP-TM; assay type: cell-based, human; conditions: 500 nM probe
Text: (§1) Cells were gated for green fluorescence and analyzed for labeling with CoilY-AF647 (A) or CoilZ-AF647 (B). Transfected cells expressed CoilZ-EGFP-TM (green), CoilY-EGFP-TM (blue), or untagged EGFP-TM (gray). Values in bold indicate the median AF647 fluorescence for each cell population.
(§2) The in vitro results were translated to living cells. Flow cytometry was used to evaluate protein labeling in live human osteosarcoma (U-2 OS) cells expressing CoilZ-EGFP-TM, CoilY-EGFP-TM, or untagged EGFP-TM (FIG. 11). Cells were treated with 500 nM AF647-conjugated probe peptide before analysis, and we gated for EGFP-expressing cells. […] Non-specific labeling of untagged EGFP-TM and homodimerization with CoilY-EGFP-TM were minimal for cells exposed to CoilY-AF647. Cells expressing CoilY-EGFP-TM were labeled with CoilZ-AF647, but with only a 4-fold enhancement.

CoilY-mCherry = assay: Two-target fluorescence imaging, cells expressing CoilY-mCherry; assay type: cell-based; conditions: fluorescence microscopy
Text: (§3) It was next confirmed that the VIP Y/Z tag set could be used in two-target imaging in fixed cells (FIGS. 5B and 13). A combination of cell lines singly-transfected with mCherry, GFP, CoilY-mCherry, or CoilZ-GFP was used, as illustrated in FIG. 9. […] Then we labeled two tagged FPs in one sample using a mixed population of cells expressing either CoilY-mCherry or CoilZ-GFP.
The VIPY/Z tag set can be used to label multiple protein targets simultaneously. Cells expressing CoilY-mCherry were combined with those expressing CoilZ-EGFP-pDisplay (FIG. 9). This mixed cell population, as well as unmixed CoilZ-GFP, CoilY-mCherry, and untagged controls, were plated for imaging. After blocking for 30 minutes at 37° C. with 6% BSA, 10% FBS, cells were treated at 4° C. with 500 nM CoilZ-biotin for 15 min and then 500 nM CoilY-AF647 for 15 min. […] Cells were then fixed, blocked for 1 hour with 6% BSA, 10% FBS and treated with Qdot565-conjugated streptavidin in order to label CoilZ-biotin. Fluorescence was detected by confocal fluorescence imaging. […] So the CoilY/Z tag set can be used to image up to four proteins at once.

CoilZ-EGFP-TM = assay: Flow cytometry of probe labeling, live U-2 OS cells expressing CoilZ-EGFP-TM; assay type: cell-based, human
CoilZ-EGFP-TM, sequence (as listed by the source): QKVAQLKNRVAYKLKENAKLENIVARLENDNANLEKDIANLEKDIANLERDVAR
Text: as §1
FIGS. 25A and 25B provide flow analysis of cells treated with CoilY-AF647. In FIG. 25A U-2 OS cells were transfected with EGFP-TM or CoilZ-EGFP-TM and treated with increasing concentrations of CoilY-AF647. Single, live, green fluorescent cells expressing untagged (left) or tagged (right) EGFP-TM were counted and analyzed for labeling without probe peptide (0 nM) or with CoilY-AF647 (50, 100, 300, 500, 750, or 1000 nM). Values within each histogram indicate the median AF647 fluorescence for each cell population. Data analyzed included between 26,000 and 35,000 live, singlet GFP+ cells.
The in vitro results were translated to living cells. Flow cytometry was used to evaluate protein labeling in live human osteosarcoma (U-2 OS) cells expressing CoilZ-EGFP-TM, CoilY-EGFP-TM, or untagged EGFP-TM (FIG. 11). […]
Protein labeling was assessed as a function of CoilY-AF647 concentration (FIG. 25). […] Cells had 21- to 44-fold higher median fluorescence compared to cells expressing untagged protein. Treatment with 300 nM AF647-CoilY gave optimal labeling, with 98% of cells labeled and a 35-fold increase in AF647 fluorescence. […]

CoilY-EGFP = assay: Fluorescence microscopy labeling of cell-surface CoilY-GFP (CoilY-EGFP); assay type: cell-based, human; conditions: fluorescence microscopy
Description: (§4) Fluorescence microscopy was used to confirm that the VIP Y/Z tag set enabled selective fluorescent labeling of proteins (FIGS. 3A and 3B). CoilZ was expressed by fusion to a cell-surface localized variant of GFP (CoilZ-GFP; pDisplay vector). […] Labeling was rapid (<30 min), target-specific, and live-cell compatible. Homodimerization between a CoilZ probe peptide and CoilZ-GFP was not observed. Cells expressing untagged GFP were not labeled with the CoilY probe peptide. CoilY was also expressed fused to the cell surface localized GFP and visualized using a CoilZ-AF647 probe peptide (FIG. 3B). No homodimerization of CoilY was observed, and the labeling was specific.
The CoilY/CoilZ tag set is bidirectional—either CoilZ or CoilY can serve as the probe peptide. CoilY-EGFP was expressed on the surface of U2OS cells and labeled with CoilZ-AF647. Protein labeling was rapid (<30 min) and specific; non-specific labeling of untagged EGFP was not observed. Homodimerization was not observed for either CoilZ-AF647 with CoilZ-EGFP or CoilY-AF647 with CoilY-EGFP (FIG. 3B).
(§5) The CoilY/CoilZ tag set is also compatible with live-cell imaging. CoilZ-EGFP was contacted with CoilY-AF647 in live U2OS cells. […] Homodimerization was not observed for CoilY-EGFP incubated with CoilY-AF647. Non-specific labeling of untagged GFP was not observed (FIG. 26). Cells internalize labeled targets over time. CoilZ-GFP and CoilY-AF647 co-localization was observed on the surface and in endocytic vesicles due to rapid internalization, and AF647 signal accumulated inside cells during a 40 min. long incubation at room temperature (FIG. 12).

CoilZ-EGFP = assay: Fluorescence microscopy labeling of cell-surface CoilZ-GFP (CoilZ-EGFP); assay type: cell-based, human
CoilZ-EGFP, sequence (as listed by the source): as above
Description: as §4, §3
(§6) The disclosed methods were tested in transfected human osteosarcoma cells (U-2 OS). A pDisplay vector was used to target CoilZ-EGFP and untagged EGFP to the cell surface. This construct includes a C-terminal fusion to the transmembrane domain of the platelet derived growth factor receptor. As expected, both CoilZ-EGFP and untagged EGFP localized to the cell surface, and green fluorescence was observed within 24 h of transfection. Then the cells were blocked with 6% BSA and 10% FBS for 30 minutes at 37° C. and then contacted with an AF647-conjugated CoilY probe (CoilY-AF647), 30 min at 4° C. Cells were fixed before imaging by confocal fluorescence microscopy. The probe peptides are membrane impermeant; only cell-surface EGFP was accessible to CoilY-AF647 for labeling. Colocalization of green fluorescent CoilZ-EGFP with CoilY-AF647 was observed.
as §5
The VIPY/Z tag set can be used to label multiple protein targets simultaneously. Cells expressing CoilY-mCherry were combined with those expressing CoilZ-EGFP-pDisplay (FIG. 9). This mixed cell population, as well as unmixed CoilZ-GFP, CoilY-mCherry, and untagged controls, were plated for imaging. […] Fluorescence was detected by confocal fluorescence imaging. […]

untagged EGFP-TM = assay: Flow cytometry of probe labeling, live U-2 OS cells expressing untagged EGFP-TM; assay type: cell-based, human; conditions: 500 nM probe
Description: as §2
Protein labeling was assessed as a function of CoilY-AF647 concentration (FIG. 25). Live cells expressing CoilZ-EGFP-TM or untagged EGFP-TM were treated with a range of CoilY-AF647 concentrations (50 nM to 1000 nM for 30 min at room temperature). […] Cells had 21- to 44-fold higher median fluorescence compared to cells expressing untagged protein. Treatment with 300 nM AF647-CoilY gave optimal labeling, with 98% of cells labeled and a 35-fold increase in AF647 fluorescence. Treatment with an excess of probe peptide (i.e., 1000 nM) enhanced the AF647 signal, but at the cost of a small increase in non-specific labeling.

[1] = tested on: untagged GFP/EGFP and mCherry; assay: Fluorescence microscopy, cells expressing untagged fluorescent proteins; assay type: cell-based, human
Description: as §4, §3, §6
The CoilY/CoilZ tag set is bidirectional—either CoilZ or CoilY can serve as the probe peptide. CoilY-EGFP was expressed on the surface of U2OS cells and labeled with CoilZ-AF647. […]

B1: CoilY-AF647: CoilY probe peptide conjugated to AlexaFluor 647 (conjugate)
peptide: MGSSNTVKELKNYIQELEERNAELKNLKEHLKFAKAELEFELAAHKFEGGGAAAC(AF647)LGKLAAALEHHHHHH
modifications: not fully specified
- homodimerization with CoilY-EGFP-TM (CoilY-EGFP-TM): minimal
- homodimerization / cross-reactivity of CoilY probe with CoilY-mCherry (CoilY-mCherry): not observed; also recorded: no cross-reactivity
- cells labeled (CoilZ-EGFP-TM; 300 nM probe): 98%
- enhancement of protein labeling (AF647 fluorescence) (CoilZ-EGFP-TM; 500 nM probe, live U-2 OS, gated for EGFP): greater than 40 fold
- homodimerization of CoilY probe with CoilY-GFP/EGFP (CoilY-EGFP): not observed
- labeling time (rapid) (CoilZ-EGFP; cell-surface CoilZ-GFP/EGFP, live-cell compatible): < 30 min
- labeling of CoilZ-GFP/EGFP (specificity, colocalization) (CoilZ-EGFP; fluorescence microscopy): target-specific; also recorded: labeled; also recorded: Colocalization; also recorded: specifically label
- non-specific labeling of untagged EGFP-TM (untagged EGFP-TM): minimal
- non-specific labeling of untagged fluorescent proteins [1]: did not interact; also recorded: No CoilY-AF647 labeling was detected; also recorded: not observed

Source: patent publication US11360100B2, “Methods and compositions useful in detecting proteins” (OREGON HEALTH & SCIENCE UNIVERSITY, priority 2016, dated 2022)
